The target in assay [1] is T1, human PD-L1 (human, UniProt Q9NZQ7 19-290).
T1 construct: whole, on cells; Target presented on human breast cancer cell lines; The quantitative assays (IRF, IC50, Kd) used MDA-MB-231 cells; also called CD274; Programmed Cell Death 1 Ligand 1
Briefly: Scatchard analysis on cells, 4 h on ice, 3-3000 pM ^111In-PD-L1.3.1, non-specific binding determined with 100 nM unlabeled antibody; 111In-labeled antibody, Scatchard analysis; MDA-MB-231 cells by paragraph 130. As to the method:
(§1) Cells were cultured to confluency in six-well plates and were incubated for 4 h on ice with increasing concentrations ¹¹¹In-PD-L1.3.1 (3-3000 pM) in 1 ml RPMI1640 containing 0.5% BSA. Non-specific binding was determined by co-incubation with 100 nM PD-L1.3.1. After incubation, cells were washed with PBS and the cell-associated activity was measured in a shielded well-type gamma counter. The specific binding (total binding—nonspecific binding) was plotted against the bound/free ratio. Data were analyzed by linear regression to determine PD-L1 receptor density per cell and to determine the Kd of ¹¹¹In-PD-L1.3.1.

The target in assay [2] is T1, human PD-L1. The assay can be described thus: saturation binding of ^111In-PD-L1.3.1 on cells, 4 h on ice, called Scatchard analysis in the filing; the cell line is not printed on the sheet (MDA-MB-231 used in the subsequent binding assays). As to the method:
as §1

Assay [3] concerns the target T1, human PD-L1. The assay can be described thus: competition on MDA-MB-231 cells, 4 h on ice: unlabeled PD-L1.3.1 (1-1000 pM) against 20 pM ^111In-PD-L1.3.1, gamma counter; unlabeled antibody, competition on MDA-MB-231 cells. As to the method:
MDA-MB-231 cells were cultured to confluency in six-well plates. The 50% inhibitory concentration (IC₅ₒ) of PD-L1.3.1 blocking of ¹¹¹In-PD-L1.3.1 binding was determined by incubating the cells for 4 h on ice in 1 ml RPMI1640 0.5% BSA, containing 20 pM ¹¹¹In-PD-L1.3.1 (1 kBq) and increasing concentrations of unlabeled PD-L1.3.1 (1-1000 pM). After incubation, cells were washed with PBS and the cell-associated activity was measured in a gamma counter. The IC₅₀ was defined as the antibody concentration that was required to inhibit binding of the radio labeled antibody by 50%. IC₅₀ values were calculated using GraphPad Prism.

T1 sequence (Q9NZQ7 19-290): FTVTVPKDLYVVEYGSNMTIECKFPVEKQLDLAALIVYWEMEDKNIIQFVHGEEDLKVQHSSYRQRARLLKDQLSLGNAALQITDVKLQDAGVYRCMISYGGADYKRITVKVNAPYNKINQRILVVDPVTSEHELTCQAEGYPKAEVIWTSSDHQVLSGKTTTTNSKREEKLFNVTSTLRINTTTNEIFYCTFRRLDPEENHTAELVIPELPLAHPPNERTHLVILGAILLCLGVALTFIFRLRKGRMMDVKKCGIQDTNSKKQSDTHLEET

B1: ^111In-DTPA-PD-L1.3.1 (antibody, V domains shown)
VH: EVQLQQSGTELVKPGASVKLSCTTSGFNIQDTYMHWVKQRPEQGLEWIGWIDPANGNTKYDPKFQGKATIIADTSSNTAYLQLRGLTSEDTAVYYCARSGVSTAHFDYWGQGTTLTVSS
VL: QIVLSQSPAILSASPGEKVTMTCRASSSVSFMHWYQQKPGSSPKPWIYATSNLASGVPTRFSGSGSGTSYSLTLSRVEAEDAATYYCQQWSSYPRTFGGGTKLEIK
modifications: ITC-DTPA conjugate chelating ^111In; conjugated residues and chain not stated
For B1, the Kd – broadly, a measure of binding affinity in units of concentration – with human PD-L1 [1] amounted to 0.97 nM; in the assay with human PD-L1 [2] it was 1 nM.

B2: PD-L1.3.1 antibody (unlabeled) (antibody, V domains shown)
VH: EVQLQQSGTELVKPGASVKLSCTTSGFNIQDTYMHWVKQRPEQGLEWIGWIDPANGNTKYDPKFQGKATIIADTSSNTAYLQLRGLTSEDTAVYYCARSGVSTAHFDYWGQGTTLTVSS
VL: QIVLSQSPAILSASPGEKVTMTCRASSSVSFMHWYQQKPGSSPKPWIYATSNLASGVPTRFSGSGSGTSYSLTLSRVEAEDAATYYCQQWSSYPRTFGGGTKLEIK
notes: also called unlabeled PD-L1.3.1
For the molecule B2, the IC50 (as a rule, the concentration that gives 50% inhibition) with human PD-L1 [3] was 0.15 nM.

For the origin of these results see patent publication US20180071413A1 (INSERM INSTITUT NATIONAL DE LA SANTE ET DE LA RECHERCHE …, published 2018).
